The values that follow come from patent US20160193316A1 (priority 1994, published 2016).

In assay [1] the target is T1, DRB1*0101 (DR1) (Homo sapiens, UniProt P01903+P01911, A100R/D57E/F55L/F60I/F76Y/I96L/L162R/M171V/P40L/Q125E/R42F/V115G/Y59C).
T1 construct: endogenous in cells; host or cells: LG2
Put plainly: HLA class II peptide binding assay. The following applies: for DR1 binding information: unit not given; for DR1 binding data: Table XIXb, Malaria Super Motif Peptides With Binding Data.

Assay [2] has as its target T2, DRB1*0301 (DR3) (Homo sapiens, UniProt P01903+P01911, A100K/A102G/A103R/A169T/F55Y/I96L/K41T/L162R/M171V/P40S/Q125H/Q178H/Q39Y/R42S/S66N/T106N/T262R/W38E/Y61H).
T2 construct: endogenous in cells; host or cells: MAT
Put plainly: HLA class II peptide binding assay (pH 4.5). Particulars: unit not given.

Assay [3] addresses T3, DRB1*0701 (DR7) (Homo sapiens, UniProt P01903+P01911, A100R/A102G/A103Q/D57E/D86V/E43K/F76Y/K127E/L162R/M171V/P40G/Q125H/Q99D/R33Q/R42Y/R54Q/S133A/S66F/T210M/V115G/Y107V/Y59L/Y89S).
T3 construct: endogenous in cells; host or cells: Pitout
Put plainly: biochemical. Type of assay: binding.

Assay [4] deals with T4, DRB1*0802 (DR8w2) (Homo sapiens, UniProt P01903+P01911, A100R/A103L/A169T/F76Y/H45Y/I96F/K41T/L162R/M171V/P40S/Q125H/Q178H/Q39Y/Q99D/R218S/R42G/S66Y/V115G/W38E).
T4 construct: endogenous in cells; host or cells: OLL
Put plainly: biochemical. Type of assay: binding.

The target in assay [5] is T5, DRB1*1101 (DR5w11) (Homo sapiens, UniProt P01903+P01911, A100R/A169T/A87E/I96F/K41T/L162R/M171V/P40S/Q125H/Q178H/Q39Y/Q99D/R42S/S66Y/T262R/V115G/W38E).
T5 construct: endogenous in cells; host or cells: Sweig
Briefly: biochemical. It counts as binding.

For assay [6], the target named is T6, DRB1*1302 (DR6w19) (Homo sapiens, UniProt P01903+P01911, A100E/A169T/K41T/L162R/M171V/P40S/Q125H/Q178H/Q39Y/Q99D/R42S/S66N/T262R/V115G/W38E/Y61H).
T6 construct: endogenous in cells; host or cells: H0301
Put plainly: HLA class II peptide binding assay. The following applies: unit not given.

For assay [7], the target named is T7, DRB1*1501 (DR2w2β1) (Homo sapiens, UniProt P01903+P01911).
T7 construct: expressed in transfected cells; host or cells: L466.1 (fibroblasts)
Briefly: HLA class II peptide binding assay. The following applies: unit not given.

Assay [8] concerns the target T8, DRB5*0101 (DR2w2β2) (Homo sapiens, UniProt P01903+Q30154).
T8 construct: expressed in transfected cells; host or cells: L416.3 (fibroblasts) or GM3107
Type of assay: binding.

Assay [9] concerns the target T9, DRB1*0401 (DR4w4) (Homo sapiens, UniProt P01903+P01911, A100K/A169T/F76Y/I96L/K127E/L162R/M171V/N62H/P40V/Q125Y/R42H/S133A/S149N/S66Y/V115G/V209L/W38E).
T9 construct: endogenous in cells; host or cells: Preiss
Put plainly: HLA class II peptide binding assay. The following applies: for DR4w4 binding data: Table XIXb.

Assay [10] concerns the target T10, DRB1*0405 (DR4w15) (Homo sapiens, UniProt P01903+P01911, A100R/A169T/D86S/F76Y/I96L/K127E/L162R/M171V/N62H/P40V/Q125Y/R42H/S133A/S149N/S66Y/V115G/V209L/W38E).
T10 construct: endogenous in cells; host or cells: KT3
Briefly: HLA class II peptide binding assay. Particulars: for DR4w15 binding data: Table XIXb.

For assay [11], the target named is T11, DRB1*1201 (DR5w12) (Homo sapiens, UniProt P01903+P01911, A100R/A169T/D57E/D86V/F55L/H45Y/K41T/L162R/M171V/P40S/Q125H/Q178H/Q39Y/Q99D/R42G/S66L/T262R/V114A/V67L/W38E/Y59H/Y61H/Y89S).
T11 construct: endogenous in cells; host or cells: Herluf
Briefly: HLA class II peptide binding assay. The following applies: for DR5w12 binding data: Table XIXb.

Assay [12] has as its target T12, DRB4*0101 (DRw53) (Homo sapiens, UniProt P01903+P13762, G164S).
T12 construct: expressed in transfected cells; host or cells: L257.6 (fibroblasts)
Put plainly: HLA class II peptide binding assay (pH 5.0). Particulars: for DRw53 binding data: Table XIXb.

The mark [13] stands for this setting: DR3a motif peptides, exemplary 15-mer containing the core sequence.
Setting [14] is: DR3a motif peptides, unit not given, exemplary 15-mer containing the core sequence.

T5 sequence (P01903 26-254, other chains not shown): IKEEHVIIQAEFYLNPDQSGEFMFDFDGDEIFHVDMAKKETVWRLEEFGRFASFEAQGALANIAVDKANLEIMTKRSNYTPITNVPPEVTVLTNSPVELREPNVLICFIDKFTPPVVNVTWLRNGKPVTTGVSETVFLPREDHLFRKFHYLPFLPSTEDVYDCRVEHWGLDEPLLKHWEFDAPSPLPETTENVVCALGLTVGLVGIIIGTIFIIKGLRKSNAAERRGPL
T9 sequence (P01903 26-254 partner, other chains not shown): as the sequence (P01903 26-254, other chains not shown) above
T1 sequence (P01903 26-254 partner, other chains not shown): as the sequence (P01903 26-254, other chains not shown) above
T6 sequence (P01903 26-254, other chains not shown): as above

Turning to LYADSAWEN, the DR1 binding information in [1] (setting [13]) is recorded as 0.0002. In [2] (setting [13]), the DR3 binding information is given as 0.3500. The sequence further showed a DR7 binding information in [3] of -0.0014. This sequence also yielded a DR8w2 binding information in assay [4] of -0.0009. Also, in [5], the DR5w11 binding information was -0.0006. The sequence also registered a DR6w19 binding information in assay [6] (setting [13]) of 0.0003. This sequence showed a DR2w2β1 binding information in assay [7] (setting [13]) of 0.0005. The same sequence returned a DR2w2β2 binding information in assay [8] of -0.0010.
Sequence YGRLEIPAI yielded a DR1 binding data in assay [1] of 0.0004. This sequence also registered a DR4w4 binding data in [9] of -0.0007. The sequence also came in with a DR4w15 binding data in assay [10] of 0.0170. This sequence displayed a DR7 binding data in assay [3] of -0.0003. In assay [4], this sequence registered a DR8w2 binding data of 0.0021. Also, the DR5w11 binding data in assay [5] was -0.0002. In [11], this sequence returned a DR5w12 binding data of 0.0002. In addition, the DRw53 binding data in assay [12] is -0.0005. Besides, the DR2w2β2 binding data in assay [8] is given as -0.0005.
For the sequence IQDSLKESR, the DR1 binding information in [1] (Malaria DR3b motif peptides) was -0.0001. This sequence had a DR3 binding information in [2] (Malaria DR3b motif peptides) of 0.8400. In addition, the DR7 binding information in assay [3] was -0.0014. This sequence gave a DR8w2 binding information in [4] of 0.0012. In [5], the DR5w11 binding information is given as -0.0006. The DR6w19 binding information in assay [6] (Malaria DR3b motif peptides) is -0.0002. Further, the DR2w2β1 binding information in assay [7] (Malaria DR3b motif peptides) is 0.0040. The sequence further registered a DR2w2β2 binding information in [8] of -0.0018.
The sequence LALLACAGL returned a DR1 binding data in [1] of 0.0018. Further, the DR4w4 binding data in assay [9] was -0.0007. Moreover, the DR4w15 binding data in assay [10] is on record as -0.0014. Also, in assay [3], the DR7 binding data came to 0.0009. In assay [4], this sequence registered a DR8w2 binding data of 0.0003. Moreover, in assay [5], the DR5w11 binding data is reported as -0.0002. The same sequence returned a DR5w12 binding data in [11] of 0.0051. In assay [12], this sequence came in with a DRw53 binding data of -0.0005. For the same sequence, the DR2w2β2 binding data in assay [8] came out at 0.0013.
VNDFQISKY returned a DR1 binding data in assay [1] of 0.0001. This sequence showed a DR4w4 binding data in assay [9] of -0.0007. In [10], this sequence gave a DR4w15 binding data of -0.0014. The DR7 binding data in assay [3] is given as -0.0003. In addition, the DR8w2 binding data in assay [4] is given as -0.0003. The sequence further returned a DR5w11 binding data in assay [5] of -0.0002. Besides, in assay [11], the DR5w12 binding data is recorded as 0.0001. This sequence had a DRw53 binding data in assay [12] of -0.0005. The DR2w2β2 binding data in assay [8] is listed as -0.0005.
Turning to WDEWSPCSV, the DR1 binding data in assay [1] came to 0.0001. In assay [9], this sequence had a DR4w4 binding data of -0.0007. In [10], this sequence displayed a DR4w15 binding data of -0.0014. For the same sequence, the DR7 binding data in assay [3] is reported as -0.0003. In assay [4], this sequence had a DR8w2 binding data of -0.0003. The DR5w11 binding data in [5] is -0.0002. In [11], the DR5w12 binding data came out at 0.0001. Moreover, the DRw53 binding data in [12] was -0.0006. The same sequence returned a DR2w2β2 binding data in assay [8] of -0.0006.
Consider VEVEKTASC, for which the DR1 binding information in assay [1] (setting [13]) worked out at 0.0001. Moreover, the DR3 binding information in [2] (setting [13]) is on record as -0.0041. Moreover, the DR4w4 binding information in [9] (setting [14]) amounted to 0.0030. In addition, the DR4w15 binding information in assay [10] (setting [14]) is recorded as -0.0014. For the same sequence, in assay [3], the DR7 binding information turned out to be 0.0073. The DR8w2 binding information in [4] was 0.0006. The sequence further gave a DR5w11 binding information in assay [5] of 0.0003. The DR5w12 binding information in assay [11] (setting [14]) stood at 0.0001. Also, the DRw53 binding information in assay [12] (setting [14]) came out at 0.0022. Besides, in assay [8], the DR2w2β2 binding information was -0.0006.
